According to patent US20240327475A1 (UNIVERSITY OF MARYLAND COLLEGE PARK, published 2024):

T1: control non-targeted ASM (Olipudase); full recombinant ASM produced by He et al. (1999), which served as … (human, UniProt P17405 62-631)
T1 construct: also called control ASM
T1 sequence (looked up): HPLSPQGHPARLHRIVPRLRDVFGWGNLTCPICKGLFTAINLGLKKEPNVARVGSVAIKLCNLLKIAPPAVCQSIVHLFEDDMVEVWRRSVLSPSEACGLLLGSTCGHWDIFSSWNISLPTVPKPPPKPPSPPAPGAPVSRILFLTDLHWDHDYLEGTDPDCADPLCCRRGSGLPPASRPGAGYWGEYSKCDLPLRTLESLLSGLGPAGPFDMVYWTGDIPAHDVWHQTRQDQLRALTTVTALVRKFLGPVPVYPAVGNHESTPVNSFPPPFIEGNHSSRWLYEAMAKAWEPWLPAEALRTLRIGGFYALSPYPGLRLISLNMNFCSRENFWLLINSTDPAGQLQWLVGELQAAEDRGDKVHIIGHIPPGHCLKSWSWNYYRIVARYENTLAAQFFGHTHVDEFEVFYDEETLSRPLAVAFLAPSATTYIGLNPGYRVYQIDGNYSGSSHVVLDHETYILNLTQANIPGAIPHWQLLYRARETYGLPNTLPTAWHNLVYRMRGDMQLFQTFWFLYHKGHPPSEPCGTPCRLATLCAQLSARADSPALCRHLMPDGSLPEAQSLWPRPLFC

B1: ICAM-1 on human cells (HUVEC; human brain endothelial cells and astrocytes of the BBB model; iPS-derived neurons from a Gaucher patient) (receptor, UniProt P05362 28-532, looked up)
chain: QTSVSPSKVILPRGGSVLVTCSTSCDQPKLLGIETPLPKKELLLPGNNRKVYELSNVQEDSQPMCYSNCPDGQSTAKTFLTVYWTPERVELAPLPSWQPVGKNLTLRCQVEGGAPRANLTVVLLRGEKELKREPAVGEPAEVTTTVLVRRDHHGANFSCRTELDLRPQGLELFENTSAPYQLQTFVLPATPPQLVSPRVLEVDTQGTVVCSLDGLFPVSEAQVHLALGDQRLNPTVTYGNDSFSAKASVSVTAEDEGTQRLTCAVILGNQSQETLQTVTIYSFPAPNVILTKPEVSEGTEVTVKCEAHPRAKVTLNGVPAQPLGPRAQLLLKATPEDNGRSFSCSATLEVAGQLIHKNQTRELRVLYGPRLDERDCPGNWTWPENSQQTPMCQAWGNPLPELKCLKDGTFPLPIGESVTVTRDLEGTYLCRARSTQGEVTRKVTVNVLSPRYEIVIITVVAAAVIMGTAGLSTYLYNRQRKIKKYRLQQAQKGTPMKPNTQATPP
notes: whole, on cells; also called ICAM receptor; intercellular adhesion molecule-1

Key:
[1] = molecular target: T1, control non-targeted ASM (Olipudase); …; test: Incubation with HUVEC cells (known to express ICAM-1) for 3 h at 37° C., then fixation, permeabilization and anti-ASM + FITC-secondary antibody staining (cell association and uptake)
[2] = molecular target: B1; test: cell-based or functional assay

| Binder | binding result [1] | association to iPS-derived neurons from a Gaucher patient, fold over control non-targeted enzyme [2] [fold] |
| --- | --- | --- |
| B1 | no binding | – |
| targeted fusion GCase protein J in Example 1 (human GCase with five tandem-repeats of the 2γ3 ICAM-1-targeting peptide at the amino terminus), after … (enzyme, pre-labeled with 125Iodine) NNQKIVNIKEKVAQIEAGGGGSGGGGSNNQKIVNIKEKVAQIEAGGGGSGGGGSNNQKIVNIKEKVAQIEAGGGGSGGGGSNNQKIVNIKEKVAQIEAGGGGSGGGGSNNQKIVNIKEKVAQIEAGGGGSGGGGSGFLGARPCIPKSFGYSSVVCVCNATYCDSFDPPTFPALGTFSRYESTRSGRRMELSMGPIQANHTGTGLLLTLQPEQKFQKVKGFGGAMTDAAALNILALSPPAQNLLLKSYFSEEGIGYNIIRVPMASCDFSIRTYTYADTPDDFQLHNFSLPEEDTKLKIPLIHRALQLAQRPVSLLASPWTSPTWLKTNGAVNGKGSLKGQPGDIYHQTWARYFVKFLDAYAEHKLQFWAVTAENEPSAGLLSGYPFQCLGFTPEHQRDFIARDLGPTLANSTHHNVRLLMLDDQRLLLPHWAKVVLTDPEAAKYVHGIAVHWYLDFLAPAKATLGETHRLFPNTMLFASEACVGSKFWEQSVRLGSWDRGMQYSHSIITNLLYHVVGWTDWNLALNPEGGPNWVRNFVDSPIIVDITKDTFYKQPMFYHLGHFSKFIPEGSQRVGLVASQKNDLDAVALMHPDGSAVVVVLNRSSKDVPLTIKDPAVGFLETISPGYSIHTYLWRRQ | – | ~3 |
